Assay results published in patent US7838501.

Key:
[1] = target: chimeric transactivator λR-GyrB-NFκB (wild type λ repressor N-terminal domain) (bacteriophage λ; Escherichia coli); assay: cell-based or functional assay
[2] = target: chimeric transactivator λR-GyrB-NFκB with λ repressor mutation S93G (mutant clone 25) (bacteriophage λ; Escherichia coli); assay: cell-based or functional assay

chimeric transactivator λR-GyrB-NFκB (wild type λ repressor N-terminal domain)
inducibility of luciferase activity, 5 nM coumermycin 40 hr, transient transfection of 293A cells [1]: 50 fold

chimeric transactivator λR-GyrB-NFκB with λ repressor mutation S93G (mutant clone 25)
Activation factor, clone 5 [2]: 5100 fold | Activation factor, clone 8 [2]: 1500 fold | Activation factor, clone 10 [2]: 3200 fold | Activation factor, clone 18 [2]: 5800 fold | Activation factor, clone 23 [2]: 14000 fold | Activation factor, clone 28 [2]: 5100 fold | Activation factor, clone 34 [2]: 5800 fold | Activation factor, clone 44 [2]: 13000 fold | Activation factor, clone 45 [2]: 1600 fold | Activation factor, clone 47 [2]: 2100 fold | Luciferase Activity, With Coum (5 nM), clone 5 (Arbitrary Light Units/µg protein) [2]: 47500 | Luciferase Activity, With Coum (5 nM), clone 8 (Arbitrary Light Units/µg protein) [2]: 52400 | Luciferase Activity, With Coum (5 nM), clone 10 (Arbitrary Light Units/µg protein) [2]: 1590 | Luciferase Activity, With Coum (5 nM), clone 18 (Arbitrary Light Units/µg protein) [2]: 7450 | Luciferase Activity, With Coum (5 nM), clone 23 (Arbitrary Light Units/µg protein) [2]: 8240 | Luciferase Activity, With Coum (5 nM), clone 28 (Arbitrary Light Units/µg protein) [2]: 12300 | Luciferase Activity, With Coum (5 nM), clone 34 (Arbitrary Light Units/µg protein) [2]: 47000 | Luciferase Activity, With Coum (5 nM), clone 44 (Arbitrary Light Units/µg protein) [2]: 30200 | Luciferase Activity, With Coum (5 nM), clone 45 (Arbitrary Light Units/µg protein) [2]: 1910 | Luciferase Activity, With Coum (5 nM), clone 47 (Arbitrary Light Units/µg protein) [2]: 8530 | Luciferase Activity, Without Coum, clone 5 (Arbitrary Light Units/µg protein) [2]: 9.4 | Luciferase Activity, Without Coum, clone 8 (Arbitrary Light Units/µg protein) [2]: 35.8 | Luciferase Activity, Without Coum, clone 10 (Arbitrary Light Units/µg protein) [2]: 0.5 | Luciferase Activity, Without Coum, clone 18 (Arbitrary Light Units/µg protein) [2]: 1.3 | Luciferase Activity, Without Coum, clone 23 (Arbitrary Light Units/µg protein) [2]: 0.6 | Luciferase Activity, Without Coum, clone 28 (Arbitrary Light Units/µg protein) [2]: 2.4 | Luciferase Activity, Without Coum, clone 34 (Arbitrary Light Units/µg protein) [2]: 8.1 | Luciferase Activity, Without Coum, clone 44 (Arbitrary Light Units/µg protein) [2]: 2.4 | Luciferase Activity, Without Coum, clone 45 (Arbitrary Light Units/µg protein) [2]: 1.2 | Luciferase Activity, Without Coum, clone 47 (Arbitrary Light Units/µg protein) [2]: 4.1 | coumermycin concentration of maximal induction of luciferase, stable clone S93G-5, 40 hr [2]: 2.5 to 5 nM | induction of luciferase activity, 5 nM coumermycin 40 hr, 293A cells with stable pLuc [2]: 1460 fold | lowest coumermycin concentration with apparent induction of luciferase expression, stable clone S93G-5, 40 hr [2]: 0.5 nM | suppression of coumermycin-induced (5 nM) luciferase expression by 5 µM novobiocin, 40 hr [2]: > 98%
